From publication PMC10658926, “Plasmodium vivax merozoite-specific thrombospondin-related anonymous protein (PvMTRAP) interacts with human CD36, suggesting a novel ligand–receptor interaction for reticulocyte invasion” (Parasites & Vectors, 2023)

Assays:
[1] = target: human CD36 (cluster of differentiation 36), ectodomain, Fc-fusion (human); experiment: BLI; Octet RED96; Fc-tagged receptor immobilised on protein G (ProG) biosensor, twofold serial dilution of His-tagged parasite ligand in HBS; KD from the response in equilibrium against concentration
[2] = target: T1, Plasmodium vivax Duffy binding protein region II (PvDBP-RII), residues 194 to 521, His-tagged (Plasmodium vivax, UniProt P22290 194-521, biotin (biotinylated with co-transfected secreted E. coli BirA and D-biotin, for the ELISA bait)); experiment: as above; conditions: both partners purified
T1 construct: source: HEK293E, transfected, culture supernatant, purified (Ni-NTA agarose); not shown: His, C-terminal, kept

Row | Molecule | Kd [1] [nM] | Kd [2] [nM]
1 | Plasmodium vivax merozoite-specific thrombospondin-related anonymous protein (PvMTRAP), full-length ectodomain, His-tagged (domain or fragment) | 37 | 
2 | Duffy antigen receptor for chemokines (DARC, CD234), residues 1 to 63, Fc-fusion (Fc fusion, human, UniProt Q16570 1-63, looked up, Duffy antigen receptor for chemokines (CD234), human, residues 1 to 63; also called human DARC; source: HEK293E, transfected, culture supernatant, purified (HiTrap Protein G HP); not shown: Fc, C-terminal, kept) MGNCLHRAELSPSTENSSQLDFEDVWNSSYGVNDSFPDGDYGANLEAAAPCHSCNLLDDSALP |  | 7.7
